Key:
[1] = molecular target: Toll-like receptor 4 (TLR-4) of Caco-2 cells (human (endogenous in Caco-2)) (UniProt O00206)
[2] = molecular target: Toll-like receptor 4 (TLR-4) of Caco-2 cells (human (endogenous in Caco-2)) (UniProt O00206); remark: listed apart in the source

Chain of UniProt O00206 (O00206 24-839): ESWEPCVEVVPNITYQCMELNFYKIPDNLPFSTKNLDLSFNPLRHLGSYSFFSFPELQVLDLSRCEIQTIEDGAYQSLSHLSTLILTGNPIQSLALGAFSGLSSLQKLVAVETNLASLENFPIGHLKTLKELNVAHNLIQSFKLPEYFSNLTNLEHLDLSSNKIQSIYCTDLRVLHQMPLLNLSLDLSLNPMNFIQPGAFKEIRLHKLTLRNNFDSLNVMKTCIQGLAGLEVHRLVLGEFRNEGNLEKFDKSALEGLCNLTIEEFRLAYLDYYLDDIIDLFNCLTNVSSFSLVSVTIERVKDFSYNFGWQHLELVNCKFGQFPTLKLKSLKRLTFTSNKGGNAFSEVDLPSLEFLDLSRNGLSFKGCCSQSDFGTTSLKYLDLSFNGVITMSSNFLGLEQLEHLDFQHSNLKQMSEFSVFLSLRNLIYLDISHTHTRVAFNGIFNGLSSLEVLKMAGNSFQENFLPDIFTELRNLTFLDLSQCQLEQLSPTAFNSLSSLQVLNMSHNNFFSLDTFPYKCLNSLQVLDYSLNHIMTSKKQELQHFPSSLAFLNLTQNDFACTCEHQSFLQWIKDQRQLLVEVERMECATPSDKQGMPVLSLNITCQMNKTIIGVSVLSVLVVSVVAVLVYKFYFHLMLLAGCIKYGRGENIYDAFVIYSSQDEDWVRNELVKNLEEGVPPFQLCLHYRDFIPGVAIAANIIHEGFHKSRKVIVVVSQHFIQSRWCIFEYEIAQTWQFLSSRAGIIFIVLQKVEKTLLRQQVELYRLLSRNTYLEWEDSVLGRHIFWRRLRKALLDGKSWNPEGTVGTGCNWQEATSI

recombinant Trichinella spiralis galectin with GST tag (GST-rTsgal) (natural protein)
NF-κB p65 transcription level (qPCR) in Caco-2 cells treated with rTsgal for 48 h, increase against the PBS group [1]: 60.2%
TLR-4 protein expression level (Western blot) in Caco-2 cells incubated with rTsgal (50 µg/mL) for 48 h, increase against the PBS group [2]: 47.7%
TLR-4 transcription level (qPCR) in Caco-2 cells incubated with rTsgal (50 µg/mL) for 48 h, increase against the PBS group [2]: 18.4%

— PMC10680189
